The series in a line: CD spectra under different pH conditions with predicted secondary structure. Format: physicochemical. The following applies: peptide concentration 20 μM, PBS (−), pH 7.4, 6.5, 6.0, 5.5. Here is the method: The peptide obtained in Production Example 1 alone and liposome 1 obtained as in Example 1 (each having a peptide concentration of 20 μM) were suspended in PBS (−) having different pH, and CD (circular dichroism) spectra were recorded on a J-720WI spectropolarimeter (produced by JASCO Corporation). Then, analysis software (see JWSSE-480; Molecular Membrane Biology, July, August 2007; 24 (4): 282-293) was used to predict the composition of the secondary structure in the spectra.
In FIG. 9 below, the “α-helix” represents an a helix structure; the “coil” represents a random coil structure (not forming a clear secondary structure); and “turn” represents a bending structure.

The values that follow come from patent publication US9186389B2, “Nanoparticles containing pH-responsive peptide” (Taiho Pharmaceutical Co., Ltd., priority 2011, dated 2015).

* marks the point of attachment. Stearoyl = CCCCCCCCCCCCCCCCCC(=O)*

Take “C17H35—C(O)-GGGGHGAHEHAGHEHAAGEHHAHE-NH2 (Stearoyl-GGGGHGAHEHAGHEHAAGEHHAHE-NH2; SMILES CCCCCCCCCCCCCCCCCC(=O)NCC(=O)NCC(=O)NCC(=O)NCC(=O)N[C@@H](Cc1c[nH]cn1)C(=O)NCC(=O)N[C@@H](C)C(=O)N[C@@H](Cc1c[nH]cn1)C(=O)N[C@@H](CCC(=O)O)C(=O)N[C@@H](Cc1c[nH]cn1)C(=O)N[C@@H](C)C(=O)NCC(=O)N[C@@H](Cc1c[nH]cn1)C(=O)N[C@@H](CCC(=O)O)C(=O)N[C@@H](Cc1c[nH]cn1)C(=O)N[C@@H](C)C(=O)N[C@@H](C)C(=O)NCC(=O)N[C@@H](CCC(=O)O)C(=O)N[C@@H](Cc1c[nH]cn1)C(=O)N[C@@H](Cc1c[nH]cn1)C(=O)N[C@@H](C)C(=O)N[C@@H](Cc1c[nH]cn1)C(=O)N[C@@H](CCC(=O)O)C(N)=O) [Compound 1]”: the “structural change with pH (CD spectrum)” value is on record as “a structural change does not occur unless the pH is lowered to 6.0”.
